From PMC8881592 come the findings set out here.

The series can be described thus: time-resolved SAXS; rSslE 0.7 mg/ml in 20 mM citrate-phosphate buffer pH 4.4, 25 °C, stirred and circulated, data every 30 min over 11 h; COSMiCS decomposition into monomer and aggregate. To be noted: other: time-resolved SAXS.

Consider “recombinant SslE from E. coli W (rSslE; residues 67 to 1497)”, for which the “molar fraction of the aggregated species after 30 min” value is given as “the aggregated species already represented 50% of the molar fraction”.
